From patent publication US20230250154A1 (CYTONICS, published 2023)

B1: Variant A2M, bait region SEQ ID NO 136 (other)
chain: SVSGKPQYMVLVPSLLHTETTEKGCVLLSYLNETVTVSASLESVRGNRSLFTDLEAENDVLHCVAFAVPKSSSNEEVMFLTVQVKGPTQEFKKRTTVMVKNEDSLVFVQTDKSIYKPGQTVKFRVVSMDENFHPLNELIPLVYIQDPKGNRIAQWQSFQLEGGLKQFSFPLSSEPFQGSYKVVVQKKSGGRTEHPFTVEEFVLPKFEVQVTVPKIITILEEEMNVSVCGLYTYGKPVPGHVTVSICRKYSDASDCHGEDSQAFCEKFSGQLNSHGCFYQQVKTKVFQLKRKEYEMKLHTEAQIQEEGTVVELTGRQSSEITRTITKLSFVKVDSHFRQGIPFFGQVRLVDGKGVPIPNKVIFIRGNEANYYSNATTDEHGLVQFSINTTNVMGTSLTVRVNYKDRSPCYGYQWVSEEHEEAHHTAYLVFSPSKSFVHLEPMSHELPCGHTQTVQAHYILNGGTLLGLKKLSFYYLIMAKGGIVRTGTHGLLVKQEDMKGHFSISIPVKSDIAPVARLLIYAVLPTGDVIGDSAKYDVENCLANKVDLSFSPSQSLPASHAHLRVTAAPQSVCALRAVDQSVLLMKPDAELSASSVYNLLPEKDLTGFPGPLNDQDDEDCINRHNVYINGITYTPVSSTNEKDMYSFLEDMGLKAFTNSKIRKPKMCPQLEQYEMHGPKEEEGLGSIPENFFGVSELEGRGSEGEGEGEGVEEPHTKLRKYFPETWIWDLVVVNSAGVAEVGVTVPDTITEWKAGAFCLSEDAGLGISSTASLRAFQPFFVELTMPYSVIRGEAFTLKATVLNYLPKCIRVSVQLEASPAFLAVPVEKEQAPHCICANGRQTVSWAVTPKSLGNVNFTVSAEALESQELCGTEVPSVPEHGRKDTVIKPLLVEPEGLEKETTFNSLLCPSGGEVSEELSLKLPPNVVEESARASVSVLGDILGSAMQNTQNLLQMPYGCGEQNMVLFAPNIYVLDYLNETQQLTPEIKSKAIGYLNTGYQRQLNYKHYDGSYSTFGERYGRNQGNTWLTAFVLKTFAQARAYIFIDEAHITQALIWLSQRQKDNGCFRSSGSLLNNAIKGGVEDEVTLSAYITIALLEIPLTVTHPVVRNALFCLESAWKTAQEGDHGSHVYTKALLAYAFALAGNQDKRKEVLKSLNEEAVKKDNSVHWERPQKPKAPVGHFYEPQAPSAEVEMTSYVLLAYLTAQPAPTSEDLTSATNIVKWITKQQNAQGGFSSTQDTVVALHALSKYGAATFTRTGKAAQVTIQSSGTFSSKFQVDNNNRLLLQQVSLPELPGEYSMKVTGEGCVYLQTSLKYNILPEKEEFPFALGVQTLPQTCDEPKAHTSFQISLSVSYTGSRSASNMAIVDVKMVSGFIPLKPTVKMLERSNHVSRTEVSSNHVLIYLDKVSNQTLSLFFTVLQDVPVRDLKPAIVKVYDYYETDEFAIAEYNAPCSKDLGNADYKDDDDKGASHHHHHH
B2: Variant A2M, bait region SEQ ID NO 132 (other)
chain: SVSGKPQYMVLVPSLLHTETTEKGCVLLSYLNETVTVSASLESVRGNRSLFTDLEAENDVLHCVAFAVPKSSSNEEVMFLTVQVKGPTQEFKKRTTVMVKNEDSLVFVQTDKSIYKPGQTVKFRVVSMDENFHPLNELIPLVYIQDPKGNRIAQWQSFQLEGGLKQFSFPLSSEPFQGSYKVVVQKKSGGRTEHPFTVEEFVLPKFEVQVTVPKIITILEEEMNVSVCGLYTYGKPVPGHVTVSICRKYSDASDCHGEDSQAFCEKFSGQLNSHGCFYQQVKTKVFQLKRKEYEMKLHTEAQIQEEGTVVELTGRQSSEITRTITKLSFVKVDSHFRQGIPFFGQVRLVDGKGVPIPNKVIFIRGNEANYYSNATTDEHGLVQFSINTTNVMGTSLTVRVNYKDRSPCYGYQWVSEEHEEAHHTAYLVFSPSKSFVHLEPMSHELPCGHTQTVQAHYILNGGTLLGLKKLSFYYLIMAKGGIVRTGTHGLLVKQEDMKGHFSISIPVKSDIAPVARLLIYAVLPTGDVIGDSAKYDVENCLANKVDLSFSPSQSLPASHAHLRVTAAPQSVCALRAVDQSVLLMKPDAELSASSVYNLLPEKDLTGFPGPLNDQDDEDCINRHNVYINGITYTPVSSTNEKDMYSFLEDMGLKAFTNSKIRKPKMCPQLEQYEMHGPEGEGEGEGIPENFFGVSELEGRGSSEDLVVQIVEEPHTKLRKYFPETWIWDLVVVNSAGVAEVGVTVPDTITEWKAGAFCLSEDAGLGISSTASLRAFQPFFVELTMPYSVIRGEAFTLKATVLNYLPKCIRVSVQLEASPAFLAVPVEKEQAPHCICANGRQTVSWAVTPKSLGNVNFTVSAEALESQELCGTEVPSVPEHGRKDTVIKPLLVEPEGLEKETTFNSLLCPSGGEVSEELSLKLPPNVVEESARASVSVLGDILGSAMQNTQNLLQMPYGCGEQNMVLFAPNIYVLDYLNETQQLTPEIKSKAIGYLNTGYQRQLNYKHYDGSYSTFGERYGRNQGNTWLTAFVLKTFAQARAYIFIDEAHITQALIWLSQRQKDNGCFRSSGSLLNNAIKGGVEDEVTLSAYITIALLEIPLTVTHPVVRNALFCLESAWKTAQEGDHGSHVYTKALLAYAFALAGNQDKRKEVLKSLNEEAVKKDNSVHWERPQKPKAPVGHFYEPQAPSAEVEMTSYVLLAYLTAQPAPTSEDLTSATNIVKWITKQQNAQGGFSSTQDTVVALHALSKYGAATFTRTGKAAQVTIQSSGTFSSKFQVDNNNRLLLQQVSLPELPGEYSMKVTGEGCVYLQTSLKYNILPEKEEFPFALGVQTLPQTCDEPKAHTSFQISLSVSYTGSRSASNMAIVDVKMVSGFIPLKPTVKMLERSNHVSRTEVSSNHVLIYLDKVSNQTLSLFFTVLQDVPVRDLKPAIVKVYDYYETDEFAIAEYNAPCSKDLGNADYKDDDDKGASHHHHHH

How the values were obtained:
Assay in all cases: cell-based or functional assay
chymotrypsin = molecular target: chymotrypsin
bovine trypsin = bovine trypsin (bovine, UniProt P00760 24-246)
bovine trypsin, sequence (P00760 24-246): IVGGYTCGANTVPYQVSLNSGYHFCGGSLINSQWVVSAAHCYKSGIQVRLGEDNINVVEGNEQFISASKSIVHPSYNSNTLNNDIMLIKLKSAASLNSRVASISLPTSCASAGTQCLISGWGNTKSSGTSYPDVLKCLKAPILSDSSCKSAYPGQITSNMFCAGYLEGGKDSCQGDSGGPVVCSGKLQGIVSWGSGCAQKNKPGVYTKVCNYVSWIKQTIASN

Elastase = molecular target: Elastase
Cathepsin G = molecular target: T1, Cathepsin G (UniProt P08311 21-244)
T1 sequence (looked up): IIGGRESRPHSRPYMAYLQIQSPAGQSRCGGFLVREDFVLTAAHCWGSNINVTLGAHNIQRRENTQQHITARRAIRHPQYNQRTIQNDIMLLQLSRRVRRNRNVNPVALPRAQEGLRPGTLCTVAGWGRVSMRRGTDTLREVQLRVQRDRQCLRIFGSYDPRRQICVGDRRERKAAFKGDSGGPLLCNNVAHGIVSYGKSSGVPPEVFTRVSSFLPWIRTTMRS

MMP8 = MMP8 (human, UniProt P22894 101-467, limits assumed)
MMP8, sequence (P22894 101-467 limits assumed): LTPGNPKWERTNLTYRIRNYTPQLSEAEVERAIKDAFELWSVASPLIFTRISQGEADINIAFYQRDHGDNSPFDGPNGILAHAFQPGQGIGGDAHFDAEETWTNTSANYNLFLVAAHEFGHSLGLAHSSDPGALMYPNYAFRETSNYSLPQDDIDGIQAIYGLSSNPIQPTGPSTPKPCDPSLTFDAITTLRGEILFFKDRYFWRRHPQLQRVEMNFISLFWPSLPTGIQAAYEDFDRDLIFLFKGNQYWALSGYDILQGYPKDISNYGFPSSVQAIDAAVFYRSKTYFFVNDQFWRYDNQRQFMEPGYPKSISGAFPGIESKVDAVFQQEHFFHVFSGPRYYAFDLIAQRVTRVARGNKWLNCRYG

MMP13 = MMP13 (human, UniProt P45452 104-471, limits assumed)
ADAMTS4 = molecular target: T2, ADAMTS4 (human, UniProt O75173 213-685, limits assumed)
T2 sequence (looked up): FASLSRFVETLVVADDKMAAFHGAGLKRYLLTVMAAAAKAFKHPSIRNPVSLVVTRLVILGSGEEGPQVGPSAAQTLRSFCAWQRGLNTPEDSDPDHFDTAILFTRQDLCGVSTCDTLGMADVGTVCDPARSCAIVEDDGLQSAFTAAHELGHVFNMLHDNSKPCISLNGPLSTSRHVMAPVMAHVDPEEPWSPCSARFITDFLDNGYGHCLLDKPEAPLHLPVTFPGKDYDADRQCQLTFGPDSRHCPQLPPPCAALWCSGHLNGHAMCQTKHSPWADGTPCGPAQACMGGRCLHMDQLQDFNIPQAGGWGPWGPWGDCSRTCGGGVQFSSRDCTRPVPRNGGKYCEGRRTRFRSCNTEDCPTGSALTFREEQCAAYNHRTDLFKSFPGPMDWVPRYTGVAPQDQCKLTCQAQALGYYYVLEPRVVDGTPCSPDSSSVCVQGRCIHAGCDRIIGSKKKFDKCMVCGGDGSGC

MMP3 = MMP3 (human, UniProt P08254 100-477, limits assumed)
MMP3, sequence (P08254 100-477 limits assumed): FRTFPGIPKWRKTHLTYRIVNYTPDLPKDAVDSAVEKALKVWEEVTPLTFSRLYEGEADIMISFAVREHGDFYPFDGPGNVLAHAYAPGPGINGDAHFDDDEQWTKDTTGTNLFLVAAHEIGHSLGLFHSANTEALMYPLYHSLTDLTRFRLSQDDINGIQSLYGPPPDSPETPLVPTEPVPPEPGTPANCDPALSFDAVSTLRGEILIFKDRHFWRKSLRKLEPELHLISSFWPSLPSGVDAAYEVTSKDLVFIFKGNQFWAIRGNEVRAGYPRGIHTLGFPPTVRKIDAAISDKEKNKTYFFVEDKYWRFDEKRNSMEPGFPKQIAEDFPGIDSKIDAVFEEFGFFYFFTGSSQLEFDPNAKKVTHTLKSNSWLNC

MMP9 = MMP9 (human, UniProt P14780 107-707, limits assumed)
MMP9, sequence (P14780 107-707 limits assumed): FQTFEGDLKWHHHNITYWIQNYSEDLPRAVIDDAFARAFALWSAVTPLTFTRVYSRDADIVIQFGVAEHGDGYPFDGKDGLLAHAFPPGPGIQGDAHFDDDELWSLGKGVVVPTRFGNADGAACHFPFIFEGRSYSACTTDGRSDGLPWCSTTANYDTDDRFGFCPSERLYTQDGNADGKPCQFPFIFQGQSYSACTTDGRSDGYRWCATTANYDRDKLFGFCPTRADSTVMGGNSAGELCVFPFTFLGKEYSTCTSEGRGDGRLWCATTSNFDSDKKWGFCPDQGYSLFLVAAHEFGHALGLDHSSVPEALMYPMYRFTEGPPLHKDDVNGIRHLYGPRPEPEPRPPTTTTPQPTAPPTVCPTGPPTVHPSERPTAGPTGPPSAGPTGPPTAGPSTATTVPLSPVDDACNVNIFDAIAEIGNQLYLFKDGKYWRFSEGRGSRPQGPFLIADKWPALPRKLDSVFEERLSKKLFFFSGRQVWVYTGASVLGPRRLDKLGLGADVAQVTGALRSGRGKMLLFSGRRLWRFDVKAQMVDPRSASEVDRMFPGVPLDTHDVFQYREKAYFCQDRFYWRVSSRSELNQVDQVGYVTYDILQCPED

MMP1 = molecular target: T3, MMP1 (human, UniProt P03956 100-469, limits assumed)
T3 sequence (looked up): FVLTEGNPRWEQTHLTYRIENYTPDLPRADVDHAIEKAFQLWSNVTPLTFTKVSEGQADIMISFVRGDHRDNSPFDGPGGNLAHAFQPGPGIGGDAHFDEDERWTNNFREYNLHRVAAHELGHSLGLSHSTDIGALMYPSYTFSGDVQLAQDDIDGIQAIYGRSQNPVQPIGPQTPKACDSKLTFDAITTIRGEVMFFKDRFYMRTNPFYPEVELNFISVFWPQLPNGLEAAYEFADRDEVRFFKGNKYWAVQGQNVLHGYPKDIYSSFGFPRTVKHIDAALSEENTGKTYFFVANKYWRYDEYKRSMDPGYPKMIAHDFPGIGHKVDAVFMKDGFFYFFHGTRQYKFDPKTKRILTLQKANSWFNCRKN

MMP12 = MMP12 (human, UniProt P39900 106-470, limits assumed)
MMP12, sequence (P39900 106-470 limits assumed): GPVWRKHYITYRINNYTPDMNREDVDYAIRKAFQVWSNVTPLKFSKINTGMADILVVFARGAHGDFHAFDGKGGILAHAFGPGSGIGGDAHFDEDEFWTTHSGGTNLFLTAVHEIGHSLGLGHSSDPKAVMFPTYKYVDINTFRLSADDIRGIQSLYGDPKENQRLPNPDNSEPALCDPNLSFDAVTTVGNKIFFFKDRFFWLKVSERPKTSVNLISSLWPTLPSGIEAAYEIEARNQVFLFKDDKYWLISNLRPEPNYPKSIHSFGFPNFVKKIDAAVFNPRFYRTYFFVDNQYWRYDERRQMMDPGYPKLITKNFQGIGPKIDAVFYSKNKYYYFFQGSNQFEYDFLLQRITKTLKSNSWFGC

ADAMTS5 = molecular target: T4, ADAMTS5 (human, UniProt Q9UNA0 262-622, limits assumed)
T4 sequence (looked up): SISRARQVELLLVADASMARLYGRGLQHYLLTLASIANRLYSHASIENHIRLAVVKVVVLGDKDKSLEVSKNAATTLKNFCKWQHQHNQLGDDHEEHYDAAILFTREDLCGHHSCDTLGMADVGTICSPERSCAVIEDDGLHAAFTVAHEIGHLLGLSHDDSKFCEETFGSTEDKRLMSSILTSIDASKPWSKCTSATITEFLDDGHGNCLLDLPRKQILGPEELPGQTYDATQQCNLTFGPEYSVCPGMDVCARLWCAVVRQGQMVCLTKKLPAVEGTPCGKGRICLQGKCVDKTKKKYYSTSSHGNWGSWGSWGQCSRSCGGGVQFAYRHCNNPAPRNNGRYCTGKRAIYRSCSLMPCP

MMP2 = molecular target: T5, MMP2 (human, UniProt P08253 110-660, limits assumed)
T5 sequence (looked up): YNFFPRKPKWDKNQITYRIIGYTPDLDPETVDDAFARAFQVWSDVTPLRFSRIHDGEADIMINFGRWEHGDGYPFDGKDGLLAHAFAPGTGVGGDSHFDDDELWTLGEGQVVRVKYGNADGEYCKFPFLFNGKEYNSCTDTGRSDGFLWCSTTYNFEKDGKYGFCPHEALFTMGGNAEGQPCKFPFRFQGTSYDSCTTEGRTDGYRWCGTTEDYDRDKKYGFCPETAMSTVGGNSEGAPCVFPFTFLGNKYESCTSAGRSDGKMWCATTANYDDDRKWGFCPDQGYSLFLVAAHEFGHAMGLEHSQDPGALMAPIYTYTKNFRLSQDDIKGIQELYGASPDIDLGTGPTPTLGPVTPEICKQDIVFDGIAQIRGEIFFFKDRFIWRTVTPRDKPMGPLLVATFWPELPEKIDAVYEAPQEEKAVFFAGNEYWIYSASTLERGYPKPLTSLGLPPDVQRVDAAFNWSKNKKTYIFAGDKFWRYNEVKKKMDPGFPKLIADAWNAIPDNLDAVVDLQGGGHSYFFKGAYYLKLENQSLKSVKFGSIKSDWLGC

Row | Binder | Protease Inhibition (% of WT) (chymotrypsin) | Protease Inhibition (% of WT) (bovine trypsin) | Protease Inhibition (% of WT) (Elastase) | Protease Inhibition (% of WT) (Cathepsin G) | Protease Inhibition (% of WT) (MMP8) | Protease Inhibition (% of WT) (MMP13) | Protease Inhibition (% of WT) (ADAMTS4) | Protease Inhibition (% of WT) (MMP3) | Protease Inhibition (% of WT) (MMP9) | Protease Inhibition (% of WT) (MMP1) | Protease Inhibition (% of WT) (MMP12) | Protease Inhibition (% of WT) (ADAMTS5) | Protease Inhibition (% of WT) (MMP2)
1 | B1 | 25 % of WT | 221 % of WT | 250 % of WT | 376 % of WT | 133 % of WT | 113 % of WT | 80 % of WT | 130 % of WT | 500 % of WT | 370 % of WT | 150 % of WT | 373 % of WT | 47 % of WT
2 | B2 | 10 % of WT | 20 % of WT | 300 % of WT | 437 % of WT | 161 % of WT | 117 % of WT | 86 % of WT | 100 % of WT | 500 % of WT | 388 % of WT | 136 % of WT | 185 % of WT | 67 % of WT
